# B1: SLAM family member 7 (Mus musculus), Q8BHK6 (parent)
# chain: MARFSTYIIFTSVLCQLTVTAASGTLKKVAGALDGSVTFTLNITEIKVDYVVWTFNTFFLAMVKKDGVTSQSSNKERIVFPDGLYSMKLSQLKKNDSGAYRAEIYSTSSQASLIQEYVLHVYKHLSRPKVTIDRQSNKNGTCVINLTCSTDQDGENVTYSWKAVGQGDNQFHDGATLSIAWRSGEKDQALTCMARNPVSNSFSTPVFPQKLCEDAATDLTSLRGILYILCFSAVLILFAVLLTIFHTTWIKKGKGCEEDKKRVDRHQEMPDLCPHLEENADYDTIPYTEKRRPEEDAPNTFYSTVQIPKVVKSPSSLPAKPLVPRSLSFENVI
# partner: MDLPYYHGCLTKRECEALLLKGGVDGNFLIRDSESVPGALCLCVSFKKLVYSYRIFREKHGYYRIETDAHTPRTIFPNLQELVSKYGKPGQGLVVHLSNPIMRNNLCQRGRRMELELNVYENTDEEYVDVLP
# Variants of: B1
# Details: with sh21b_mouse Sh2d1b
row,effect of a mutation on the interaction,Variant
1,disrupting interaction,MARFSTYIIFTSVLCQLTVTAASGTLKKVAGALDGSVTFTLNITEIKVDYVVWTFNTFFLAMVKKDGVTSQSSNKERIVFPDGLYSMKLSQLKKNDSGAYRAEIYSTSSQASLIQEYVLHVYKHLSRPKVTIDRQSNKNGTCVINLTCSTDQDGENVTYSWKAVGQGDNQFHDGATLSIAWRSGEKDQALTCMARNPVSNSFSTPVFPQKLCEDAATDLTSLRGILYILCFSAVLILFAVLLTIFHTTWIKKGKGCEEDKKRVDRHQEMPDLCPHLEENADFDTIPFTEKRRPEEDAPNTFFSTVQIPKVVKSPSSLPAKPLVPRSLSFENVI [Y282F;Y287F;Y302F]
2,disrupting interaction,MARFSTYIIFTSVLCQLTVTAASGTLKKVAGALDGSVTFTLNITEIKVDYVVWTFNTFFLAMVKKDGVTSQSSNKERIVFPDGLYSMKLSQLKKNDSGAYRAEIYSTSSQASLIQEYVLHVYKHLSRPKVTIDRQSNKNGTCVINLTCSTDQDGENVTYSWKAVGQGDNQFHDGATLSIAWRSGEKDQALTCMARNPVSNSFSTPVFPQKLCEDAATDLTSLRGILYILCFSAVLILFAVLLTIFHTTWIKKGKGCEEDKKRVDRHQEMPDLCPHLEENADYDTIPYTEKRRPEEDAPNTFFSTVQIPKVVKSPSSLPAKPLVPRSLSFENVI [Y302F]
